# Data published in patent publication US20260266848A1, “COMPOSITIONS AND METHODS FOR DIAGNOSING AND TREATING DYSTONIA” (Duke University, priority 2023, published 2026).
# B1: Cryab (protein, UniProt P23927 1-175, looked up)
# Alpha-crystallin B chain: MDIAIHHPWIRRPFFPFHSPSRLFDQFFGEHLLESDLFSTATSLSPFYLRPPSFLRAPSWIDTGLSEMRLEKDRFSVNLDVKHFSPEELKVKVLGDVIEVHGKHEERQDEHGFISREFHRKYRIPADVDPLTITSSLSSDGVLTVNGPRKQVSGPERTIPITREEKPAVAAAPKK
# B2: Uba3 (protein, UniProt Q8C878 2-462, looked up)
# NEDD8-activating enzyme E1 …: ADGEEPEKKRRRIEELLAEKMAVDGGCGDTGDWEGRWNHVKKFLERSGPFTHPDFEPSTESLQFLLDTCKVLVIGAGGLGCELLKNLALSGFRQIHVIDMDTIDVSNLNRQFLFRPKDVGRPKAEVAAEFLNDRVPNCNVVPHFNKIQDFNDTFYRQFHIIVCGLDSIIARRWINGMLISLLNYEDGVLDPSSIVPLIDGGTEGFKGNARVILPGMTACIECTLELYPPQVNFPMCTIASMPRLPEHCIEYVRMLQWPKEQPFGDGVPLDGDDPEHIQWIFQKSIERASQYNIRGVTYRLTQGVVKRIIPAVASTNAVIAAVCATEVFKIATSAYIPLNNYLVFNDVDGLYTYTFEAERKENCPACSQLPQNIQFSPSAKLQEVLDYLTNSASLQMKSPAITATLEGKNRTLYLQSVTSIEERTRPNLSKTLKELGLVDGQELAVADVTTPQTVLFKLHFT
# B3: Itgb3 (protein, UniProt O54890 26-787, looked up)
# Integrin beta-3: ESNICTTRGVNSCQQCLAVSPVCAWCSDETLSQGSPRCNLKENLLKDNCAPESIEFPVSEAQILEARPLSSKGSGSSAQITQVSPQRIALRLRPDDSKIFSLQVRQVEDYPVDIYYLMDLSFSMKDDLSSIQTLGTKLASQMRKLTSNLRIGFGAFVDKPVSPYMYISPPQAIKNPCYNMKNACLPMFGYKHVLTLTDQVSRFNEEVKKQSVSRNRDAPEGGFDAIMQATVCDEKIGWRNDASHLLVFTTDAKTHIALDGRLAGIVLPNDGHCHIGTDNHYSASTTMDYPSLGLMTEKLSQKNINLIFAVTENVVSLYQNYSELIPGTTVGVLSDDSSNVLQLIVDAYGKIRSKVELEVRDLPEELSLSFNATCLNNEVIPGLKSCVGLKIGDTVSFSIEAKVRGCPQEKEQSFTIKPVGFKDSLTVQVTFDCDCACQAFAQPSSPRCNNGNGTFECGVCRCDQGWLGSMCECSEEDYRPSQQEECSPKEGQPICSQRGECLCGQCVCHSSDFGKITGKYCECDDFSCVRYKGEMCSGHGQCNCGDCVCDSDWTGYYCNCTTRTDTCMSTNGLLCSGRGNCECGSCVCVQPGSYGDTCEKCPTCPDACSFKKECVECKKFNRGTLHEENTCSRYCRDDIEQVKELTDTGKNAVNCTYKNEDDCVVRFQYYEDTSGRAVLYVVEEPECPKGPDILVVLLSVMGAILLIGLATLLIWKLLITIHDRKEFAKFEEERARAKWDTANNPLYKEATSTFTNITYRGT
# B4: Scarb2 (protein, UniProt Q14108 1-478, looked up)
# Lysosome membrane protein 2: MGRCCFYTAGTLSLLLLVTSVTLLVARVFQKAVDQSIEKKIVLRNGTEAFDSWEKPPLPVYTQFYFFNVTNPEEILRGETPRVEEVGPYTYRELRNKANIQFGDNGTTISAVSNKAYVFERDQSVGDPKIDLIRTLNIPVLTVIEWSQVHFLREIIEAMLKAYQQKLFVTHTVDELLWGYKDEILSLIHVFRPDISPYFGLFYEKNGTNDGDYVFLTGEDSYLNFTKIVEWNGKTSLDWWITDKCNMINGTDGDSFHPLITKDEVLYVFPSDFCRSVYITFSDYESVQGLPAFRYKVPAEILANTSDNAGFCIPEGNCLGSGVLNVSICKNGAPIIMSFPHFYQADERFVSAIEGMHPNQEDHETFVDINPLTGIILKAAKRFQINIYVKKLDDFVETGDIRTMVFPVMYLNESVHIDKETASRLKSMINTTLIITNIPYIIMALGVFFGLVFTWLACKGQGSMDEGTADERAPLIRT
# B5: Ipo7 (protein, UniProt Q9EPL8 1-1038, looked up)
# Importin-7: MDPNTIIEALRGTMDPALREAAERQLNEAHKSLNFVSTLLQITMSEQLDLPVRQAGVIYLKNMITQYWPDREATPGDIAPYTIPEEDRHCIRENIVEAIIHSPELIRVQLTTCIHHIIKHDYPSRWTAIVDKIGFYLQSDNSACWLGILLCLYQLVKNYEYKKPEERSPLVAAMQHFLPVLKDRFIQLLSDQSDQSVLIQKQIFKIFYALVQYTLPLELINQQNLTEWVEILKTVVNRDVPNETLQVEEDDRPELPWWKCKKWALHILARLFERYGSPGNVSKEYNEFAEVFLKAFAVGVQQVLLKVLYQYKEKQYMAPRVLQQTLNYINQGVSHALTWKNLKPHIQGIIQDVIFPLMCYTDADEELWQEDPYEYIRMKFDVFEDFISPTTAAQTLLFTACSKRKEVLQKTMGFCYQILTEPNADPRKKDGALHMIGSLAEILLKKKIYKDQMEYMLQNHVFPLFSSELGYMRARACWVLHYFCEVKFKSDQNLQTALELTRRCLIDDREMPVKVEAAIALQVLISNQEKAKEYITPFIRPVMQALLHIIRETENDDLTNVIQKMICEYSEEVTPIAVEMTQHLAMTFNQVIQTGPDEEGSDDKAVTAMGILNTIDTLLSVVEDHKEITQQLEGICLQVIGTVLQQHVLEFYEEIFSLAHSLTCQQVSPQMWQLLPLVFEVFQQDGFDYFTDMMPLLHNYVTVDTDTLLSDTKYLEMIYSMCKKVLTGVAGEDAECHAAKLLEVIILQCKGRGIDQCIPLFVEAALERLTREVKTSELRTMCLQVAIAALYYNPHLLLNTLENLRFPNNVEPVTNHFITQWLNDVDCFLGLHDRKMCVLGLCALIDMEQIPQVLNQVSGQILPAFILLFNGLKRAYACHAEHENDSDDDEDAEDDDETEELGSDEDDIDEDGQEYLEILAKQAGEDGDDEDWEEDDAEETALEGYSTIIDDEDNPVDEYQIFKAIFQTIQNRNPVWYQALTHGLNEEQRKQLQDIATLADQRRAAHESKMIEKHGGYKFSAPVVPSSFNFGGPAPGMN
# B6: Esyt1 (protein, UniProt Q3U7R1 1-1092, looked up)
# Extended synaptotagmin-1: MEHSPEEGASPEPSGQPPATDSTRDGGSGVPPAGPGAASEALAVLTSFGRRLLVLVPVYLAGAAGLSVGFVLFGLALYLGWRRVRDGKERSLRAARQLLDDEERITAETLYMSHRELPAWVSFPDVEKAEWLNKIVAQVWPFLGQYMEKLLAETVAPAVRGANPHLQTFTFTRVELGEKPLRIIGVKVHPSQRKDQILLDLNVSYVGDVQIDVEVKKYFCKAGVKGMQLHGVLRVILEPLTGDLPIVGAVSMFFIKRPTLDINWTGMTNLLDIPGLSSLSDTMIMDSIAAFLVLPNRLLVPLVPDLQDVAQLRSPLPRGIIRIHLLAARGLSSKDKYVKGLIEGKSDPYALVRVGTQTFCSRVIDEELNPHWGETYEVIVHEVPGQEIEVEVFDKDPDKDDFLGRMKLDVGKVLQAGVLDNWYPLQGGQGQVHLRLEWLSLLPDAEKLDQVLQWNRGITSRPEPPSAAILVVYLDRAQDLPLKKGNKEPNPMVQLSVQDVTRESKATYSTNSPVWEEAFRFFLQDPRSQELDVQVKDDSRALTLGALTLPLARLLTASELTLDQWFQLSSSGPNSRLYMKLVMRILYLDYSEIRFPTVPGAQDWDRESLETGSSVDAPPRPYHTTPNSHFGTENVLRIHVLEAQDLIAKDRFLGGLVKGKSDPYVKLKVAGKSFRTHVVREDLNPRWNEVFEVIVTSIPGQELEIEVFDKDLDKDDFLGRYKVSLTTVLNSGFLDEWLTLEDVPSGRLHLRLERLTPRPTAAELEEVLQVNSLIQTQKSSELAAALLSVFLERAEDLPLRKGTKPPSPYATITVGETSHKTKTVSQSSAPVWEESASFLIRKPHAESLELQVRGEGTGTLGSVSLPLSELLQEDQLCLDHWFALSGQGQVLMRAQLGILVSQHSGVEAHSHSYSHSHSSSSLNDEPEALGGPTHPASPVLEVRHRLTHGDSPSEAPVGPLGQVKLTVWYHSDEQKLISIIHSCRALRQNGRDLPDPYVSVLLLPDKNRSTKRKTPQKKRTLNPEFNERFEWDLPLDGTLRRKLDVSVKSNSSFMSRERELLGKVQLDLAEIDLSQGAAQWYDLMDDRDKGGS
# Experiments:
# WT MEF EVs = experiment: Quantitative LC-MS/MS proteomics of EVs from ISRIB-treated WT MEF cultures; format: cell-based, mouse; parameters: key to ISRIB and DYT Parallel Direction / ISRIB and DYT Parallel Direction, Ctdsp1 / ISRIB and DYT Parallel Direction, Pcdh19 / ISRIB and DYT Parallel Direction, Tspan7 / ISRIB and DYT Parallel Direction, Myo1e / ISRIB and DYT Parallel Direction, Plpp3 / ISRIB and DYT Parallel Direction, Sh3bp4 / ISRIB and DYT Parallel Direction, Dnajc7 / ISRIB and DYT Parallel Direction, Drg1 / ISRIB and DYT Parallel Direction, Maea: YES = protein abundance effect similar to DYT/WT; conditions: EV protein abundance; for WT + ISRIB/WT Cohen's d: ISRIB-treated WT vs WT
# DYT-TOR1A MEF EVs = experiment: Quantitative LC-MS/MS proteomics of EVs from drug-treated DYT-TOR1A MEF cultures (ritonavir, salubrinal); format: cell-based, mouse; parameters: key to RTV Corrective Direction / RTV Corrective Direction, Grwd1 / RTV Corrective Direction, Srrm2 / RTV Corrective Direction, Rbm17 / RTV Corrective Direction, Dcaf8 / RTV Corrective Direction, Edil3 / RTV Corrective Direction, Timp3 / RTV Corrective Direction, Heatr3 / RTV Corrective Direction, Brd4 / RTV Corrective Direction, P3h4 / RTV Corrective Direction, Pacsin3 / RTV Corrective Direction, Naa50 / RTV Corrective Direction, Lpar6 / RTV Corrective Direction, Ndrg1 / RTV Corrective Direction, Kntc1 / RTV Corrective Direction, Cdk11b / RTV Corrective Direction, Sumo1 / RTV Corrective Direction, Lsm4 / RTV Corrective Direction, Hmga2 / RTV Corrective Direction, Cstf1 / RTV Corrective Direction, Tes / RTV Corrective Direction, Sbno1 / RTV Corrective Direction, Unc119b / RTV Corrective Direction, Cfdp1 / RTV Corrective Direction, Sec61b: YES = protein abundance effect opposite to DYT/WT; conditions: EV protein abundance; for RTV Corrective Direction: DYT + RTV (ritonavir) vs DYT, direction compared with DYT/WT; for DYT + RTV/DYT Cohen's d: ritonavir (RTV)-treated DYT vs DYT
Molecule,WT + ISRIB/WT Cohen's d (WT MEF EVs),RTV Corrective Direction (DYT-TOR1A MEF EVs),DYT + RTV/DYT Cohen's d (DYT-TOR1A MEF EVs),"ISRIB and DYT Parallel Direction (WT MEF EVs; WT + ISRIB vs WT, direction compared with DYT/WT)"
B1,0.39,YES,1.11,
B2,−1.68,YES,10.01,YES
B3,0.14,YES,1.96,
B4,0.09,YES,0.24,
B5,0.30,YES,2.25,
B6,0.18,YES,1.25,
